Test results from US20160116468A1.

How the values were obtained:
[1] = target: endogenous EGFR expressed in COS7 cells; test: diffusion coefficient change of endogenous EGFR (Alexa Fluor 647 Fab of mAb 199.12 as probe) in a COS7 cell, 20 µg/ml cetuximab
[2] = target: endogenous EGFR expressed in COS7 cells; test: diffusion coefficient change of endogenous EGFR (labelled Fab probe), COS7 cells
[3] = target: endogenous EGFR expressed in COS7 cells; test: diffusion coefficient of endogenous EGFR after against before cetuximab, COS7 cells

- change in diffusion coefficient (%) [1]: 40%
- change in diffusion coefficient (%) [2]: 40%
- Dc2 value as percent of Dc1 value [3]: 60%
Substance: cetuximab (antibody)
